In the DeepSol protein solubility set:

assay: soluble on expression in E. coli; label from the status in PepcDB or PDB records

Sequence | soluble on expression in E. coli
MDQQSTRTDITVNVDGFWMLQALLDIRHVAPELRCRPYVSTDSNDWLNEHPGMAVMREQGIVVNDAVNEQVAARMKVLAAPDLEVVALLSRGKLLYGVIDDENQPPGSRDIPDNEFRVVLARRGQHWVSAVRVGNDITVDDVTVSDSASIAALVMDGLESIHHADPAAINAVNVPMEEMLEATKSWQESGFNVFSGGDLRRMGISAATVAALGQALSDPAAEVAVYARQYRDDAKGPSASVLSLKDGSGGRIALYQQARTAGSGEAWLAICPATPQLVQVGVKTVLDTLPYGEWKTHSRV | soluble
MRTALLQNLFSLFPFDLHGDCDVPPARDGIRVSCIINFYGRLNVLAGILWSLAQQDFPRSAFEVILVEDRGGSDEGRALAEEFSSRLPIVYAPLDKQYGLMGYSRNFGLERSRGEFILFLDDDTIILQDDFLKTMVAYFDAQPGVSAIMPHGEASFAFVDDRYDFHDPFFMTSRCTAYRRTVLASLGGFMSSFIGQEDVEFVIRFHAAGNRCAAVPQLAYRHPPLYVTNLGKPMAVGSSFYGIRKRYPLVTWLLAVVNCSRHLPLVLAPSRKYREMGRFGLGFLWGVLTAPFRSGSLNYRLEHHHHHH | not soluble
MSMEFDAVIIGGGVSGCATFYTLSEYSSLKRVAIVEKCSKLAQISSSAKANSQTIHDGSIETNYTPEKAKKVRLSAYKTRQYALNKGLQNEVIFETQKMAIGVGDEECEFMKKRYESFKEIFVGLEEFDKQKIKELEPNVILGANGIDRHENIIGHGYRKDWSTMNFAKLSENFVEEALKLKPNNQVFLNFKVKKIEKRNDTYAVISEDAEEVYAKFVLVNAGSYALPLAQSMGYGLDLGCLPVAGSFYFVPDLLRGKVYTVQNPKLPFAAVHGDPDAVIKGKTRIGPTALTMPKLERNKCWLKGISLELLKMDLNKDVFKIAFDLMSDKEIRNYVFKNMVFELPIIGKRKFLKDAQKIIPSLSLEDLEYAHGFGEVRPQVLDRTKRKLELGEKKICTHKGITFNMTPSPGATSCLQNALVDSQEIAAYLGESFELERFYKDLSPEELENLEHHHHHH | soluble
GANDRYTETKRIVDSHCLHTICSSGRCPNMGECWGKGTATFMIGGDICTRSCKFCNTQTGRPHPLDANEPTHVAESIALMKLDHAVVTSVDRDDLPDLGAGHWAHTIREIKRLNPQTTIEVLIPDFQGRMELVDLVIEANPDIISHNMETVRRISPLVRSAANYDTSLQVIGHIARSGTKSKSGIMVGLGETPQEVETIMDDLLAVGCQILTIGQYLQPTHRHYPVAEYVTPQQFATYKTIGLEKGFSIVESAPLVRSSYHAEKHIR | not soluble
MSLKIVYITENAEKLAKDVKSVFDYYFYDNEVFNIKDFEITGNETGFVFIMASGIVLRKYIPEIQNDKLKDPFVILMDESKKHVVPLLSNHIGGGNYFSDLIGNFLNLDVVKTTATDVNGKIGIDELSKIYFLENPLKKDILSVNKKVLSEKPDLIIPKAWKTSKKLLNSYNVSFHDESHVLVDDIVLKPKTVSLGLGSRRNIEKSKVYWAVKKALYLRDIPTWRIDTFSTVSVKKDEYGILKTAERFDKDLFIFEIDELNEIYSKYPLIRSEFVFKTIGTYGVSEPCAILGISKITGETDFEMKKLVLNKMKKDGVSVSIAVEGHHHHHH | not soluble
MGSDKIHHHHHHSDLTSAQVAERLLVSQPKISLLENGHRAISPRDVRDLCELYGVTDRQVIDSLMRMARESGQQGWWNTYGNIPNSVYIGLETDASSIHTYEPMVIPDLLQTPAYAHAVIETTVPPIPAQQADARLKVRLRRQHRIYDPARPLRLWVVLDEPALHRVVGRPDIMREQLEHLNALSAEPHITVQVLPYTAGAHPGRQGQFSVLRFADSPEAGMVYLERFTSDLYLKKPSEVQQYSMMYDHLQARALSPEGTRDFVTDVTKSHIDVASRP | not soluble
MSLNKKRPLKGRFLHITDIHPDPHYKTGSTFDSGCHRKPKKDGKSEGKKATENERGNEDLDDKEFDTLIKNEDLAGKWGTAVSDCDCPMSLVNITFDWLKEEWANEVDFVVWTGDNARHDIDRRIPRTPKEIFDSNRMIVDRMLDAFGRDMPIVPSIGNNDIYPHNVLAAGPSRITEEFLLIWKHFIPSEAAHVFERGAYFSVEVIPDRLAVISLNTLFWYDANTLVDGCRDHSNDPGALEMDWLEVQLNNFRQRGMQVWLTGHVPPHMNHYYDNCYLRYGDLALRYQDTIVGHLFGHMNVDHFFFIDVDELEATSELTSTSSNTTLSDLPLLHGPRLPRPGPGKYTAMGRSGARKLEEELRKDEGHHHHHH | soluble
MDRVRNLLEQIQGRLDELNKAERKVAEVILLNPQMATRLSIAALAQAAKVSEPTVNRFCRSFSVSGYPELKLQLAQSLASGAAYVSRAVEADDNPEAYTQKIFGSAIASLDSACQQLDPALVSKSVDMLIQARQIHFFGLGASAPVALDAQHKFFRFNLAVTAHADVLMQRMIASVAHTGELFVIISYTGRTRELVEVARIARANGASVLGLTAAGSPLAQASTVSLNIPLPEDTDIYMPMTSRIIQLTVLDVLATGMTLRRGVDFQPHLRKIKESLNDSRYPIEDQG | not soluble
MGSSHHHHHHSSGLVPRGSTSEVIEDEKQFYSKAKTYWKQIPPTVDGMLGGYGHISSIDINSSRKFLQRFLREGPNKTGTSCALDCGAGIGRITKRLLLPLFREVDMVDITEDFLVQAKTYLGEEGKRVRNYFCCGLQDFTPEPDSYDVIWIQWVIGHLTDQHLAEFLRRCKGSLRPNGIIVIKDNMAQEGVILDDVDSSVCRDLDVVRRIICSAGLSLLAEERQENLPDEIYHVYSFALR | soluble
GSMALPKDAIPSLSECQCGICMEILVEPVTLPCNHTLCKPCFQSTVEKASLCCPFCRRRVSSWTRYHTRRNSLVNVELWTIIQKHYPRECKLRASGQESEEVADDYQPVRLLSKP | soluble
MTHKGSCHCGRIAFEVDGEPGSAMACNCSICQRKGSLLWFVPREHLHLLTPDENASTYTFNKHVIRHRFCPVCGMHPYGEGTGADGKAMVAINIRCLEDIDLAAVPVTQFDGRSRLEHHHHHH | soluble
MGSDKIHHHHHHMFQYFPTNYVWSLSAMIALTHGGQIGEVDQMCAPLVDAARAGNDPGTLAFFNAWKSGADKLAELAEEDKSGGRLLSAGEKLGRAALYYIIAERMQAHDFDGRLALYKHSLDVFLEGVRLARENCERIEIPYQDRHISGLYVRAVGVQGRAPVVVVMNGLDSTKEMLYRSCITSYLSRRGVAVLLVDQPGTGEALRLQKLHAIPQTEIWASKIVDYLQARTDIDPVRIGALGVSLGGYYAPRAVAFEPRFAAGAVWGANHDWREVQKRRLAREGENPVPHYWKHVEWVFGASDLDDFMQCAEAMHLNGVLDRIKVPFLVTHGENDRQIPVQYAHQTYEQLANSPRRELKIFTAREGGVEHSSLDNPTNAGSYIADWLAEQLHGTTA | not soluble
GMAPDQQVPATALGKSSRISLDGRRSERSVILADGSMHSLTLLHPGVYTLSSEVAETIRVLSGMAYYHAEGANDVQELHAGDSMVIPANQSYRLEVMEPLDYLLSS | soluble
MKVIAVNGGPRKQWNTATLLHKALEGAQSAGAETDLFHLYDLNYKGCISCFGCKRKNSSRIGHCVLKDELTPLLEEVLKCDALLLGSPIYFGNVTGAMRSFLERLFFSLLSYNEGQRTVFPRKVASGFIYTMNVPEDFLPQLGYEAVFKANARSLELLNGPSEYLLATDTYQFDNYSNYEASRFNEQHKAQVRQERFPQDCRQAFDLGAR | not soluble
MSLRILLALASLSGNTREVARVIRARCEERGHRVDWIETDLQTLAGQALDPHTYTLFLLGTWTDNAGRTPFEMKRFIVELLELIGKPPSVAVFGTGETQWGQEYYCGAVHRISDFFASRFPRLLIEQMPHGERDALAIVEWTDQVLDQCNKDSDADHYRYVAEGHHHHHH | soluble
MAYELPELPYAYDALEPHIDKETMTIHHTKHHNTYVTNLNKAVEGNTALANKSVEELVADLDSVPENIRTAVRNNGGGHANHKLFWTLLSPNGGGEPTGALAEEINSVFGSFDKFKEQFAAAAAGRFGSGWAWLVVNNGKLEITSTPNQDSPLSEGKTPILGLDVWEHAYYLNYQNRRPDYISAFWNVVNWDEVARLYSERK | soluble
MGSDKIHHHHHHMSTPTRIITSKDIETGKHISPAQRLRIMNADEWEEFIEEWTDSLKKEYFKVERLGGAGDKGRDIVAQLENAEIWDNYQCKHYGHSLRPSDIWTEIGKLVYYTAIGDFTCPRKYFFIAPLGVGTSLSDLLKNPRKLVQGLRENWDKYCKDKITQNCLIKLSDMEPQLEKIDFSIFGYVTPLTIIEQHRKTPHFITRFGGGLPKREIPPEPPIKSTSEESEYLKKILQAYSDFNKQDISTIDDVTDIDLTEHYKDSRIQFYSAEALKRFSRDALPENEFKLLQQEFLNGIKDEIRNPVHANGYLRLLEVVKVARALQITSHALIDCLMVNDRGGICHQLANDNESIAWAKNG | not soluble
MGSDKIHHHHHHMTENEFLSQEEIDKLLSDSDTGGVLTPEEKDMIGEIGNIAMGSAATTLSMILGRDIHITVPTVREEKMKNVKSDFSGEQVVVSVEYTEGLEGLNVLVLDKKLVAVIADLMMGGSGEVETEELDEIKLSAVGEAMNQMMGSAATSLSELLGITINISPPKVEILNFDDPNTQFPPVTDNPEKDVAVVEFEMEIEGLPKSKFYQVISADLVKKMYEYFTKKQSEAAEKKEKKEEKKVKVEPVEFAELKPSETRKTEVPSDKLELLLDIPLKVTVELGRTRMTLKRVLEMIPGSIIELDKLTGEPVDILVNGKLIARGEVVVIDENFGVRITEIVSPKERLELLNE | not soluble
MSLTTIDPRSELVDGRRRAGARVDAVGAAALLSAAARVGVVCHVHPDADTIGAGLALALVLDGCGKRVEVSFAAPATLPESLRSLPGCHLLVRPEVMRRDVDLVVTVDIPSVDRLGALGDLTDSGRELLVIDHHASNDLFGTANFIDPSADSTTTMVAEILDAWGKPIDPRVAHCIYAGLATDTGSFRWASVRGYRLAARLVEIGVDNATVSRTLMDSHPFTWLPLLSRVLGSAQLVSEAVGGRGLVYVVVDNREWVAARSEEVESIVDIVRTTQQAEVAAVFKEVEPHRWSVSMRAKTVNLAAVASGFGGGGHRLAAGYTTTGSIDDAVASLRAALGEGHHHHHH | soluble
MGSDKIHHHHHHMPRPRRSQVSVEDTPMYHCCSRVVRRAYLCGDDKFSGKNYDHRRGWVEAQLLKLAEVFAIDVAAYAVMSNHLHVVLSIDIYQANRWTGIEVINQWHLLFKGTDITQKFAKGETLEDYEALELTYTIALYRSRLSDISWFMRALNEPIARRANEEDECTGRFWEGRFKSQALLDEAAVLACMVYVDLNPIRSTIAKTPETSDFTSIKRRITAALNGTQPKALLPFVGNERKDMPKGLTFHLKDYLQLVEDTGKAVRNDKRGCISPNSHSILNRLNIPADNWLKIINEFGKLFKGPVGTLQELTAYCEHLEKQRRHYCHACQHLAAS | not soluble
MGSDKIHHHHHHMKQSEQEEPLTGGNVSDVSRIGETVRREQKPESLRVHRVLQHLEQKGFEGSPRYLGIDPQGREILSFIEGEAGNYPLQPYMQSDRVLEETARLLRSYHEAVADFPIPTDWQPLDGTPEPLELICHNDFAVYNVIFQNERPVGIIDFEVAAPGPRIWDIAYTMYTFVPLSRHQMTEDGEPAHYNPVNDQERIRRRVLLFLSAYGKAELKDEMYETVLLRVEALIKTIHRRAAEGDDAFQRMIDDGHVTHYEQEIDFLKREGADWFR | not soluble
